{
  "source": "the DeepSol protein solubility set",
  "data": [
    {"assay": "soluble on expression in E. coli; label from the status in PepcDB or PDB records", "values": [
      {"sequence": "MPKRRLQTTLSEEAFRIIEKFKPDYGGINEVIEAALKLLNREDRNLSEDDILLIRLIRDLDFTGCGRSQYMHLICGDIEKAVKESMMETAVEWFLKKPFAEIELEEFLETVKRGWKVLNRVDYVEITKGDGWIQIFCEHTMRRREVSEFLAMHILNIYEKYYKGEWDVVKSISTNGFTLKFYRRV", "soluble on expression in E. coli": "not soluble"},
      {"sequence": "MRLLLAAPHSGAGKTTVSLALLLALRARGLRVQPFKVGPDYIDPTHLEKAAARRPYNLDGFFLDETGLLALFRHGARGADFALIEGVMGLFDGKDPRGEVGSTAQVARLLKAPVALVVDAKGMAGSIAPLALGFRDFHPGVRVVGVFANRVGSERHAEILKEALKAVGLPLLGWLPQDPALALPERHLGLVLAGEVAPPLEALRRAFRVDLEGVLRLAASAPPLPEARPFLPPRRPPRARVAYAWDKAFSFYYPEALELLEALGAELVPFSPLEDEALPKAHALLLGGGYPELFAERLSANVALREAIRRFPGPIVAECGGYMYLSQGLWVGERFFPMVGLVPGEARMAERPVLGYREVEALRDSPVARKGQAFKGHEFHYARLPASPSPAWRRLGGEEVEGYTDGRVLASFVHLYLPAKPEGVERLLGLASRGKAAGAS", "soluble on expression in E. coli": "soluble"},
      {"sequence": "MIVPEVSSSSTNEANVPESSAGKYTYKDIRDDRVLTYFDLRRGESKTFTVRLQATYAGNFILPAIQCEAMYDAAVQARTKAGRTTVSR", "soluble on expression in E. coli": "not soluble"},
      {"sequence": "MTSHKRFCLSSRSPSYHTTELSLPLYIKFISWDFDCFQVDDVGFRPIFSAKTPNSPFTVEILRSGISGIVFDERETNTTANDGRMNFAMEYIIDKLLGDRCVPITVETLQISVDRVHYIFSKNLNMICKNLDVSIIETGVTLDTILHTSSYPLKSLSLSNTWAFAHPIILTAELLIVPTSDHFHRITNARVHAISLSGDFKLFIYEWLENGREIGTEFTIGGFRGRDYAKKMVCDIKEEFDERFQVVRRSHFPLSIAIKMNDFSEIYVFYDDIMERSKVYFKVQPTQF", "soluble on expression in E. coli": "not soluble"},
      {"sequence": "MGSDKIHHHHHHLKQFRRNYSDPNRGPTGKGVAKYQALKHTCQVCPSKMKCCPKADARKITREEHEDARQVARKIAETKQYVISMRLKKKVEMLFAHLKRILGLGRLRLRDPSRDHGYAMTLPGTACSASDEFLLAATAQNLRKLAKTFPAPQQTRKA", "soluble on expression in E. coli": "not soluble"},
      {"sequence": "MATPALLPGVDLAAFAAALAARLRDAGIPVSASGQASLVQALQQLVPRTPAALYWGARLTLVSRVDELATFDAVFASLFGVFGSAEPDGANRPPPPIAGPRTPVAGVGHRAKRRSCAAQAQNLPWDTRSLTMASAGQGGPSRTLPDVLPSRIVARADEPFDQFDPDDLRLLGAWLEATMARWPRRRSMRFESSPHGKRIDLRATMNASRSTGWESVLLARIRPRRRPRRVLLLCDVSRSMQPYAAIYLRLMRAAVLRRAGGHPEVFAFSTSLTRLTSVLSHRSAEMALHRANARVTDRYGGTFIGRSVAALLAPPHGNALRGAVVIIASDGWDSDPPDVLVHALTRVRRRAELLVWLNPRAAHPEFQPRAGSMAAALPYCDLFLPAHSLAGLHQLLLALAGAR", "soluble on expression in E. coli": "soluble"},
      {"sequence": "MSLTGTSAIENVDSGNEESMIYQQVGDQTKVLTENDKYLVKCINSFNAEQLPIPSHVPFYSTIDGVNKQCSYNDNENLYVWNFINSKWDDSNYCKIPLNTDSSSSVNALPKSVFILPTNYDTDAEMLGLENSNSSNGIVGGVILVENTADATYLVYYEDMRSINHLSTSISKNMAHLLDLKLHSEEKVTLMLNSEPAGLVLATTEGRLMFITIRETNGKPCLTLKQQLIRPKGSGPLAFLSLFSSSNEIISLRNGPIIGKGERIVYVLTRNGRFQVWKLSVASKCVKMMDTNFYDSILDDLVELYPFAQGSLKILDTHPITNQPFSPQVVLTQISSSDETNFILSTIILDEQTNSFTIFSTYRLNTYIMKGNSALAKPKLCVPSSLQSATSKYFDLFIVFDKAVVITQTSSKLDSTYTLKRKWEDIISFNKEIQILAESNDASTVYLLTKGMGIISIIPKKERGETAYEESFVKSHLDQAIYFSSSSSNPVEFNLPGGLHLEQDEVENDLKTASEEILLSSSKYIPPLTDNIEKHLSLRLVYFRNLISFVKDNFAFSISPSKKLDIIENFELLNCFHKFNNFISSSNFELKSFWDRTLEANGNINEIELAVEKIHRFPDLFSTYLNTIIKELPSKSYTFKLTLADLIIETIYDAILEEGEKKLRYEFLSLDPLELNTHLPWFISIDILDSINQLFFDLKFSLEGQEKNANTQLLVIVKTLYYLFNQVRLFFLKENNMNDVSAQDFMKKCDQLYENNHLAWNQTLCELGLNEDSLEISEFYHDFVSLVETLDTLEAVESKALYEEYFARFGEQFAHTLFEYYVKKSKLQDLFYRFPEQQEFLVSFFKKYPQYGRVSWIFSIINYDYASAAATLYDITSGDRASAMTLESAQLYLNIAKLSTLAAHENHANVNLLGALKRIQANLDVVDGGKDLVEKLKRVDGAPSHLQANYKGTEFEKLFDLLVKKVTNGTMLQFVEVVILYSLIDDKECLYHALKLLAIDGDILELELKKFLISLIWRRSILFDIQNAYDTTSEDSTLHFVLKQYLEDELFRANCPLPTVGVLTEKTMFTESLLSSLFSNYELDTKKLQDILEKEYNTVESTAVDIEKRIIETISSLDKANDNSYTVNYHDLTIEYQNEGHHHHHH", "soluble on expression in E. coli": "soluble"},
      {"sequence": "KSLLTAKTRNTIIFAFHPQAQKSSVAAAKIVYQAARKAGAPKDFIQWIETPSLENTTALMQNPEIASILATGGPSMVHAALTSGNPSMGVGAGNGAVFIDHTARVRRAAEDLLLSKRFDNGMICATE", "soluble on expression in E. coli": "not soluble"},
      {"sequence": "SHPGIDSMSSNINCENNPFSFYGNPHKSVIIHGKEGTELLKEKGEDCKTFENSQQYFLWCCVQQQMYHYQLLSTAFASYGFEPPRIPGAFPHHIPPIFNGSMKCLRDREVFNQSGFLYVNVSPDTYQETRQEAPVEQRNQWSEKSKTTSKKSICKVLFECTNSSLLENAENRSIFSKQGSGSHVGENSKNPSEDSGQSGRLSQNATAEHNVLEKHLQEEYQMAKNTVNESFDSLKECSAASVIKGSYLLSQVVHIPEDAIEPEIPPDLQGPGGHVFLRMLSRSWRQYKRALEHNE", "soluble on expression in E. coli": "soluble"},
      {"sequence": "MEHEIGNISIARIRQMNPSLKGINNDFVMDRSEHYIPENMNPIFKYPLRLDGIIISIREKGSAKVNINLREYDIEQNDLIICAPGDILQSMLSPGIHLSQMFLISSDFLKEMYINLNSFMPFFISLKENPKFHLMEEEVQELKSFYELIEETVSRNDNFRTEIVRRLMGAYLYKIGSILHRKQPEFLSENPKSLKREEVLFNQFINLLTEHHRKERRVDFYAEQLFLSPKHFSTVVKKVSGKTAGEWIDEYVILEAKALLKYSVMSIQEVAYFMNFPNPSFFGKYFKHHTGLSPSEYKMQ", "soluble on expression in E. coli": "not soluble"},
      {"sequence": "GPGSMLSQYLRKRVSVVTVDGRNLVGVLHAADQLLNIVLTSCVERTGAPYDFDDGAAEEDNGSVVDEGVSTAFSGGDTASGALPPLEEVHLGVMMLRGADVVSIAAIDVYEEAGTNVKDWRGRDMPPATAVARSW", "soluble on expression in E. coli": "soluble"},
      {"sequence": "MTYMVSILLVSPRPGHDVATAERNDVLRATGLAPEQLEQVLIDDVEKHLPDFSRFDGIIVGGSPLNISNETYSDWQKHVHTELSRIVYSAIPSFFICYGNSFLVDLTGGTVGRTHPEDSGATIVSLTADGLTDRITRDLPTTFTSLTGHTENAICLGDSTVLLATGDTCPIQMIRANETTWACQFHAEMDAQAMKTRMDFYKDYGYFSPEDYDAIVSSLPSIDTTYSNRVLRNFIEVCEGKR", "soluble on expression in E. coli": "not soluble"},
      {"sequence": "MSLIIRLNFITKYKVDMKRSHLSLIACLLASTQAYALSTDREQPVYIDSDSQQLDMKSNRVTFLGDVKLKQGSININADKLIVIRNAENGKIEEIEGYGNVATFSQLTDEGKTLYGEAKELYYKVRDDELVMINKAMLSQDDSEIRGSKIRYKISLQKLIADSDGKGRVSTVLQPQAIQEEGHHHHHH", "soluble on expression in E. coli": "soluble"},
      {"sequence": "GMPTRVIEDKGDMTPSFGIDDRIFLGEGLFETIRVNSSKPSFAYMHWERLGNSARQLGIPFEISFDDWFEHLIQKIQKDNLYHGGIKAILSGGPASRGLAERGQVSQLIFQTFNYSIQKHPVRLISINWLRDKANPLYQLKSVNYLEAIIAQRQAIAVGADDALFFNTENHVTETTCANLFLIENNILYTPRVEDGILPGITRARLISHCQQHKMSVQEISLTKKRIEDADAVFLTNSLQGIRRVLSLDNIIFEVNHPIIDKLIFLLNQDES", "soluble on expression in E. coli": "soluble"},
      {"sequence": "MLSCVIPAHDEAALIGQTLQCLHACAQAMQLDYEAIVVADACSDDTAAIARANGASVIEVELRHIAATRNAGAQAAQGDRLLFLDADTQVNPQVMAAALAALDAGAVGGGARVHLHGKRVWVERMAQAVFGWIFRLSGIAPGCFLFCTRAAFASAGGFDTRYYAGEDVALSRSLARCGRFVILRQTVHTSDRKLRSFSKREHVGLLLRFLWRGRRMLQTRDALGFWYQRRRLEHHHHHH", "soluble on expression in E. coli": "not soluble"},
      {"sequence": "MGSDKIHHHHHHMQTNDKVLKAFHSVKDVGSERSIVELGWLEVVSVKPPKIVVRLNLPNFAIAQRGQMAVDIRESIKSLEDIEEVQIEIGDSSPSKESPIGQAGHGSQSQGLTAIPKVKNVIAISSGKGGVGKSTVAVNLACALSQKGFKVGLLDADIYGPNTPYMLGVSEITPEVSGSGAEQKIIPIETCGIGMVSMGLLIDQNQPVIWRGPMLNGIIRQFLYQASWGERDFLIVDLPPGTGDAQLSLAQAVPMAGVIIVTTPQNVSLQDSRRGLAMFKQMNIPVLGVIENMTYFIPPDQPQKSYKIFGSGGGSQLAKENNVPLLSQIPIETDTFSGTGKDLPVVHTSRDSITAKVFLELAGTLCNALSVKQ", "soluble on expression in E. coli": "not soluble"},
      {"sequence": "MLKKKVNNDAGKTFILISSSCSSCQKAIEYFKENNLSYTIENFYKKPISDKRFRDILSLSEDGTESLFSKRADQIRSNTNQSVEDLTIPELIKLIRERPSILRRPIIIQYNSSGIPKRMRIGYNAAEIKVFERSLMEPKVRTVKK", "soluble on expression in E. coli": "soluble"},
      {"sequence": "MGSDKIHHHHHHMQSLHGNCLIAYARHKYILTMVNGEYRYFNGGDLVFADASQIRVDKCVENFVFVSRDTLSLFLPMLKEEALNLHAHKKVSSLLVHHCSRDIPVFQEVAQLSQNKNLRYAEMLRKRALIFALLSVFLEDEHFIPLLLNVLQPNMRTRVCTVINNNIAHEWTLARIASELLMSPSLLKKKLREEETSYSQLLTECRMQRALQLIVIHGFSIKRVAVSCGYHSVSYFIYVFRNYYGMTPTEYQERSAQRLSNRDSAASIVAQGNFYGTDRSAEGIRL", "soluble on expression in E. coli": "not soluble"},
      {"sequence": "MGSDKIHHHHHHMIRKHFKGYNFVCIPETGVTFRWGDSIAEDPYMAPWPELADISISNYCTNGCEYCYRASNEEGIFMTVADYKFILGQLTSKEYGSIFQVALGGGEPLLHPDFNEILHVTREEYGIIPNYTTCGKYFNQKNMEASKKYCGAVAVSWDPYRDNLSLEELRELGVQLKEEKIRTNIHYVISERTLIEAIKLLKGKYDEYLKDFNSVIFLTYKAAGRADKSDVIKSQKYLREFLDMVDAPLTKLKLGFDACFVPVLMKATGVDTDLVDSCECGFFSVYVSESMEVMPCSFCNNSNFTYNLKDLCFKDIWQKHFSAYRSYVNDNCKTGCAECDERSGCRGKCSFYNDIYLCNLV", "soluble on expression in E. coli": "not soluble"},
      {"sequence": "EKDSVLRHNINKLGLTSIAVEPVAAWKLNDRHSFGAGIIAQHTSAELRKYADWGIKSKAEILTAKPPKPNGVAEAAKIQADGHADVKGSDWGFGYQLAWMWDINDRARVGVNYRSKVSHTLKGDAEWAADGAAAKAMWSTMLAANGYTANEKARVKIVTPESLSVHGMYKVSDKADLFGDVTWTRHSRFDKAELVFEKEKTVVKGKSDRTTITPNWRNTYKVGFGGSYQISEPLQLRAGIAFDKSPVRNADYRMNSLPDGNRIWFSAGMKYHIGKNHVVDAAYTHIHINDTSYRTAKASGNDVDSKGASSARFKNHADIIGLQYTYKFK", "soluble on expression in E. coli": "not soluble"},
      {"sequence": "GPGSMLKFRLPYTHKKIGFGDSSRKVNSSLIGPDGTVNYLRGDILLPIWTRPTSTEGRLVVPRGAHRVPYKVAQVENCFFFFNARVREQVHFNHILLPDENLDHHYDAAAEVNCLLKYLQFLHPELREASAAVLRREVKHISTSITAHLRVNFQDVVRRREYLLLKQARSGQSEEEGDESDNEAVDADTAPNCGAQLGSSWETFAKEIIQAASKERARVVWRRNVEETGSDVRSGFWVTTIMRQ", "soluble on expression in E. coli": "not soluble"}
    ]}
  ]
}
